Five molecules from article PMC7672431, “NMR structure of a vestigial nuclease provides insight into the evolution of functional transitions in viral dsDNA packaging motors” (Nucleic Acids Research, 2020) can be followed below.

By stoichiometry N is commonly meant a count of units in the complex or per binding partner. The Kd is the concentration at which binding is half-saturated.

The target in series [1] is phi29 gp16 CTD (residues 223–332; C-terminal domain of the packaging ATPase) (bacteriophage phi29) (UniProt P11014). As to the kind of experiment: AUC; sedimentation velocity, 42 000 rpm, 30°C, c(s) distribution in SEDFIT; CTD-L at 25 and 55 μM, CTD at 30 and 85 μM.
Series [2] concerns the molecule itself. Described as above.
In series [3] the target is T1, gp16 CTD (C-terminal domain of DNA packaging ATPase) (bacteriophage phi29, UniProt P11014 223-332).
T1 sequence: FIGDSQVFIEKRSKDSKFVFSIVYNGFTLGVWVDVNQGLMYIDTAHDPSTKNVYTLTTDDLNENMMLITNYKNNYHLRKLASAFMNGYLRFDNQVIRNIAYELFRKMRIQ
In words: fluorescence intensity titration; Fluorescence: 50 mM sodium phosphate pH 6.5, 200 mM NaCl, temperature not stated; NMR: same buffer plus 0.02% NaN3, 2 mM DSS, ~100 uM protein, 303 K. As to conditions: protein: recombinant, tags: His tag implied (pET30a NdeI/XhoI, Talon resin).

Series [4] deals with T2, phi29 DNA packaging ATPase gp16, full length, assembled as a pentameric ring in the packaging motor on procapsids (bacteriophage phi29), P11014.
T2 chain: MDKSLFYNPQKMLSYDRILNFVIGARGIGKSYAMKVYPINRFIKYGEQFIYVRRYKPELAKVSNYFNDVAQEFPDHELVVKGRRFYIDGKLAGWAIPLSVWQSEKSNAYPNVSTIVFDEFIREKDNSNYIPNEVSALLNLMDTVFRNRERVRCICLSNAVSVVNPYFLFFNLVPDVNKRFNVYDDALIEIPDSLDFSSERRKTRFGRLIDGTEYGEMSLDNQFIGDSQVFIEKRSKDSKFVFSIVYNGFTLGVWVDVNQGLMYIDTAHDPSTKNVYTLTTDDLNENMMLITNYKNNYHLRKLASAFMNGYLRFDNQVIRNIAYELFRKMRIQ
As to the kind of experiment: cryo-EM structure; NMR structure of the CTD fitted into a ∼5.2 Å cryoEM map of phi29 particles stalled during packaging with γ-S-ATP (map of ref. 25; CTD density 5-fold averaged). As to conditions: remark: other sources report otherwise.

In series [1], “phi29 gp16 CTD (residues 223–332; C-terminal domain of the packaging ATPase) (from UniProt P11014 223-332) (domain or fragment)” registered a percent dimers at 30 and 85 μM of 2%.

B1: phi29 gp16 CTD-L (residues 208–332; inter-domain linker and C-terminal domain of the packaging ATPase) (domain or fragment, bacteriophage phi29, UniProt P11014 208-332, looked up)
chain: LIDGTEYGEMSLDNQFIGDSQVFIEKRSKDSKFVFSIVYNGFTLGVWVDVNQGLMYIDTAHDPSTKNVYTLTTDDLNENMMLITNYKNNYHLRKLASAFMNGYLRFDNQVIRNIAYELFRKMRIQ
notes: DNA packaging ATPase gp16 of bacteriophage phi29 (332 amino acids), residues 208-332: inter-domain linker plus C-terminal domain; Cloned between NdeI and XhoI of pET30a, which would add a C-terminal His6 tag (surmised); Isotope-labelled for the NMR experiments; also called gp16 CTD-L (208–332); source: E. coli BL21(DE3), pET30a, purified (Talon resin, HiTrap Q HP)
Consider B1, for which the “stoichiometry N” value in series [2] is 2.

B2: 22 bp dsDNA, 3'-fluorescein (dsDNA)
DNA 1: GGTATCATGTGAGGGTGGGGGC
DNA 2: GCCCCCACCCTCACATGATACC
For the molecule B2, the dissociation constant (Kd) in series [3] (label: 3' fluorescein (36FAM) on strand 1, blunt) was 3.1 µM.

B3: pRNA A-helix mimic, 3'-fluorescein (structured_RNA)
RNA: UCAAUGGUACGGUACUUCCAUUGUCAUGUUUUUCAUGGCAAAAGUGCACGCUACUUUGAU
Turning to B3, in series [3] (label: 3' fluorescein (36FAM), hairpin), the dissociation constant Kd turned out to be 3.2 µM.

B4: phi29 DNA packaging ATPase gp16, full length, assembled as a pentameric ring in the packaging motor on procapsids, P11014 1-332 (enzyme)
chain: MDKSLFYNPQKMLSYDRILNFVIGARGIGKSYAMKVYPINRFIKYGEQFIYVRRYKPELAKVSNYFNDVAQEFPDHELVVKGRRFYIDGKLAGWAIPLSVWQSEKSNAYPNVSTIVFDEFIREKDNSNYIPNEVSALLNLMDTVFRNRERVRCICLSNAVSVVNPYFLFFNLVPDVNKRFNVYDDALIEIPDSLDFSSERRKTRFGRLIDGTEYGEMSLDNQFIGDSQVFIEKRSKDSKFVFSIVYNGFTLGVWVDVNQGLMYIDTAHDPSTKNVYTLTTDDLNENMMLITNYKNNYHLRKLASAFMNGYLRFDNQVIRNIAYELFRKMRIQ
B4 yielded a stoichiometry N in series [4] of 5.
